Data from the supplement of paper PMC10567573.

B1: ZNF263 (parent)
chain: QPKKLHLCPLCGKNFSNNSNLIRH

Variants of: B1
Assay: protein stability index of a GFP-peptide fusion (GPS, HEK-293T) (PSI 1-6); higher = more stable
Conditions: c terminus: a fixed tail appended
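Also: lentivirally expressed fusions sorted by FACS into six bins by GFP to DsRed ratio, PSI derived from sequencing read proportions per bin multiplied by bin number.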

Compared with K4R, K4S is higher in protein stability index: 1.88 for the first, 3.18 for the second.

First: K4T
Second: K4V
The protein stability index of the first is higher: 2.75 for the first, 2.62 for the second.

Going from K4W to K4Y, the protein stability index falls from 2.47 to 2.44.

Compared with L5A, L5C is lower in protein stability index: 2.53 for the first, 2.02 for the second.

Compared with L5D, L5E is lower in protein stability index: 3.25 for the first, 2.64 for the second.

First: L5F
Second: L5G
The protein stability index of the first is lower: 1.81 for the first, 2.54 for the second.

L5H and L5I are the same in protein stability index: 2.64 for the first, 2.64 for the second.

First: L5K
Second: L5M
The protein stability index of the first is lower: 2.67 for the first, 2.71 for the second.

Going from L5N to L5P, the protein stability index falls from 2.13 to 2.09.

Compared with L5Q, L5R is lower in protein stability index: 2.54 for the first, 2.37 for the second.

Going from L5S to L5T, the protein stability index falls from 2.39 to 1.71.

First: L5V
Second: L5W
The protein stability index of the first is higher: 3.02 for the first, 2.74 for the second.

First: L5Y
Second: H6A
The protein stability index of the first is higher: 2.18 for the first, 2.02 for the second.

First: H6C
Second: H6D
The protein stability index of the first is lower: 1.99 for the first, 2.95 for the second.

Compared with H6E, H6F is higher in protein stability index: 2.38 for the first, 2.44 for the second.

Compared with H6G, H6I is lower in protein stability index: 2.39 for the first, 2.05 for the second.

Compared with H6K, H6L is lower in protein stability index: 2.81 for the first, 2.19 for the second.

First: H6M
Second: H6N
The protein stability index of the first is higher: 2.24 for the first, 2.14 for the second.

Going from H6P to H6Q, the protein stability index rises from 2.11 to 2.22.

First: H6R
Second: H6S
The protein stability index of the first is higher: 2.32 for the first, 1.71 for the second.

First: H6T
Second: H6V
The protein stability index of the first is higher: 3.08 for the first, 2.12 for the second.

First: H6W
Second: H6Y
The protein stability index of the first is lower: 2.05 for the first, 2.88 for the second.

First: L7A
Second: L7C
The protein stability index of the first is higher: 2.69 for the first, 2.3 for the second.

Compared with L7D, L7E is higher in protein stability index: 2.1 for the first, 2.28 for the second.

First: L7F
Second: L7G
The protein stability index of the first is higher: 2.78 for the first, 2.08 for the second.

Going from L7H to L7I, the protein stability index rises from 2.46 to 3.56.

Going from L7K to L7M, the protein stability index falls from 2.88 to 2.59.

Going from L7N to L7P, the protein stability index falls from 2.18 to 2.07.

Compared with L7Q, L7R is lower in protein stability index: 2.85 for the first, 2.72 for the second.

First: L7S
Second: L7T
The protein stability index of the first is lower: 2.1 for the first, 2.74 for the second.

First: L7V
Second: L7W
The protein stability index of the first is higher: 3.04 for the first, 2.38 for the second.

Going from L7Y to C8A, the protein stability index falls from 3.02 to 2.83.

Going from C8D to C8E, the protein stability index rises from 2.4 to 3.1.

Going from C8F to C8G, the protein stability index rises from 2.05 to 2.85.

First: C8H
Second: C8I
The protein stability index of the first is lower: 2.38 for the first, 2.61 for the second.

Compared with C8K, C8L is lower in protein stability index: 2.46 for the first, 1.97 for the second.

Compared with C8M, C8N is lower in protein stability index: 3.22 for the first, 3 for the second.

First: C8P
Second: C8Q
The protein stability index of the first is higher: 2.82 for the first, 2.71 for the second.

Going from C8R to C8S, the protein stability index falls from 2.56 to 2.41.

First: C8T
Second: C8V
The protein stability index of the first is lower: 3.03 for the first, 3.15 for the second.

First: C8W
Second: C8Y
The protein stability index of the first is higher: 1.97 for the first, 1.82 for the second.

Going from P9A to P9C, the protein stability index falls from 2.43 to 2.3.

P9D and P9E are the same in protein stability index: 2.56 for the first, 2.56 for the second.

Compared with P9F, P9G is higher in protein stability index: 1.93 for the first, 2.26 for the second.

Going from P9H to P9I, the protein stability index falls from 2.38 to 1.89.

First: P9K
Second: P9L
The protein stability index of the first is higher: 2.63 for the first, 2.21 for the second.

Compared with P9M, P9N is higher in protein stability index: 2.31 for the first, 2.4 for the second.

Compared with P9Q, P9R is lower in protein stability index: 2.67 for the first, 2.25 for the second.

Going from P9S to P9T, the protein stability index rises from 2.52 to 2.66.

First: P9V
Second: P9W
The protein stability index of the first is lower: 2.1 for the first, 2.4 for the second.

First: P9Y
Second: L10A
The protein stability index of the first is higher: 2.61 for the first, 2.5 for the second.

Compared with L10C, L10D is lower in protein stability index: 4.03 for the first, 3.78 for the second.

Going from L10E to L10F, the protein stability index falls from 3.47 to 3.03.

First: L10G
Second: L10H
The protein stability index of the first is lower: 2.87 for the first, 3.56 for the second.

Going from L10I to L10K, the protein stability index rises from 2.83 to 3.44.

First: L10M
Second: L10N
The protein stability index of the first is higher: 3.28 for the first, 3.16 for the second.

First: L10P
Second: L10Q
The protein stability index of the first is lower: 2.62 for the first, 2.91 for the second.

Compared with L10R, L10S is higher in protein stability index: 3.32 for the first, 4.12 for the second.

Going from L10T to L10V, the protein stability index rises from 2.84 to 2.96.

Compared with L10W, L10Y is higher in protein stability index: 2.38 for the first, 2.53 for the second.

First: C11A
Second: C11D
The protein stability index of the first is lower: 3.13 for the first, 3.58 for the second.

Going from C11E to C11F, the protein stability index falls from 3.18 to 1.87.

Going from C11G to C11H, the protein stability index rises from 2.56 to 2.88.

Compared with C11I, C11K is higher in protein stability index: 2.16 for the first, 2.62 for the second.

Going from C11L to C11M, the protein stability index falls from 2.41 to 2.07.

First: C11N
Second: C11P
The protein stability index of the first is lower: 2.8 for the first, 3.36 for the second.

Compared with C11Q, C11R is lower in protein stability index: 2.91 for the first, 2.83 for the second.

Going from C11S to C11T, the protein stability index rises from 2.74 to 3.11.

First: C11V
Second: C11W
The protein stability index of the first is higher: 2.48 for the first, 1.74 for the second.

Compared with C11Y, G12A is higher in protein stability index: 1.68 for the first, 2.27 for the second.

Compared with G12C, G12D is lower in protein stability index: 2.47 for the first, 2.11 for the second.

Going from G12E to G12F, the protein stability index falls from 2 to 1.39.

Compared with G12H, G12I is higher in protein stability index: 2.4 for the first, 2.44 for the second.

Going from G12K to G12L, the protein stability index falls from 2.13 to 2.07.

Going from G12M to G12N, the protein stability index rises from 1.79 to 2.45.

Compared with G12P, G12Q is higher in protein stability index: 2.3 for the first, 2.53 for the second.

Going from G12R to G12S, the protein stability index falls from 2.34 to 1.99.

First: G12T
Second: G12V
The protein stability index of the first is higher: 3.13 for the first, 2.36 for the second.

Compared with G12W, G12Y is higher in protein stability index: 1.94 for the first, 2.68 for the second.

Going from K13A to K13C, the protein stability index falls from 3.12 to 2.47.

Going from K13D to K13E, the protein stability index rises from 1.67 to 2.29.

Going from K13F to K13G, the protein stability index falls from 2.51 to 2.24.

Going from K13H to K13I, the protein stability index falls from 2.62 to 1.89.

In the case of K13L, the protein stability index is reported as 2.21.
